Assay results published in patent US20210139574A1 (UCB, published 2021).
Square brackets hold non-standard residues; d marks the D form. Ends that are not written are not given here. Tyr(3-NO2) = N[C@@H](Cc1ccc(O)c([N+](=O)[O-])c1)C(=O)O; pS = N[C@@H](COP(=O)(O)O)C(=O)O

B1: Tau-binding antibody having the light chain of SEQ ID No.: 17 and the heavy chain of SEQ ID No.:23 (antibody, human IgG1, kappa)
light: DIQMTQSPSSLSASVGDRVTITCQASQSVSSYLAWYQQKPGKAPKLLIYAASYLASGVPSRFSGSGSGTDFTLTISSLQPEDFATYYCQQGYTRTDIDNTFGGGTKVEIKRTVAAPSVFIFPPSDEQLKSGTASVVCLLNNFYPREAKVQWKVDNALQSGNSQESVTEQDSKDSTYSLSSTLTLSKADYEKHKVYACEVTHQGLSSPVTKSFNRGEC
heavy: not shown
B2: Tau-binding antibody having the light chain of SEQ ID No.: 17 and the heavy chain of SEQ ID No.:24 (antibody, human IgG1, kappa)
light: B1 light
heavy: not shown
B3: Tau-binding humanised antibody having the light chain of SEQ ID NO: 17 and the heavy chain of SEQ ID NO: 20 (antibody, human IgG4 S228P, kappa)
light: B1 light
heavy: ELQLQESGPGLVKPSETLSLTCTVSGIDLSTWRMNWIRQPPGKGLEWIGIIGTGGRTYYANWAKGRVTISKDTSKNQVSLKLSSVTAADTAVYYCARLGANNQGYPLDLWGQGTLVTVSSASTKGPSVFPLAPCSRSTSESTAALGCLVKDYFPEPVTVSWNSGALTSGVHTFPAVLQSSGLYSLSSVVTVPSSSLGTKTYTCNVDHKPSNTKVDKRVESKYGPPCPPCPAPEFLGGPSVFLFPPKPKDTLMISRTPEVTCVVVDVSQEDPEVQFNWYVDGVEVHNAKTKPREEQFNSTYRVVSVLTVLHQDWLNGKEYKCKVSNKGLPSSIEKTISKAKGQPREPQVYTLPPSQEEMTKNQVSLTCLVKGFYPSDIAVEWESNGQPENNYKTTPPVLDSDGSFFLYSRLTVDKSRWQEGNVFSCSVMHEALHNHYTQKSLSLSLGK
B4: Tau-binding antibody having the light chain of SEQ ID No.: 17 and the heavy chain of SEQ ID No.:21 (antibody, human IgG4 S228P, kappa)
light: B1 light
heavy: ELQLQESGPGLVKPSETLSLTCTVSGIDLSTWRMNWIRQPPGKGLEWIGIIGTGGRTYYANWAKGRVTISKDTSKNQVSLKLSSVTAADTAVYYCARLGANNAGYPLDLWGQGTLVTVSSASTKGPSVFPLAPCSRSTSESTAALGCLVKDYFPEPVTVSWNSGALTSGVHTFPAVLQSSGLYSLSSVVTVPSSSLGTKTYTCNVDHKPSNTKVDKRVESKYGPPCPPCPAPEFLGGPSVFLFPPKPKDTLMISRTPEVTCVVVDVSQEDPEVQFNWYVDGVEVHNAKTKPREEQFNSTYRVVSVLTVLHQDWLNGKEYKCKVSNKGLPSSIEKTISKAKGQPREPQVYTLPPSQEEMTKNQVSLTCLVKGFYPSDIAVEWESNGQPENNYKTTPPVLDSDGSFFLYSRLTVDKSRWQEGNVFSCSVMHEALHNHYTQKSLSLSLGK
B5: AB1 having a murinised VL of SEQ ID NO: 9 and a murinised VH of SEQ ID NO.: 10 (antibody, V domains shown)
VH: QVQLKESGPGLVAPSQSLSITCTVSGIDLSTWRMNWVRQPPGKGLEWIGIIGTGGRTYYANWAKGRFSISKDSTQVFLKMNSLQTEDTATYFCARLGANNNGYPLDLWGAGTTVTVSS
VL: DVVMTQSPASLAVSLGQRATISCQASQSVSSYLAWYQQKPGQPPKLLIYAASYLASGVPSRFKGSGSGTEFTLNIHPVEEEDAATYYCQQGYTRTDIDNTFGGGTKLEIK
B6: mFab from murinised mAB1 antibody with light chain of SEQ ID No.: 58 and heavy chain of SEQ ID No.: 59 (Fab, V domains shown)
VH: B5 VH
VL: DVVMTQSPASLAVSLGQRATISCQASQSVSSYLAWYQQKPGQPPKLLIYAASYLASGVPSRFKGSGSGTEFTLNIHPVEEEDAATYYCQQGYTRTDIDNTFGGGTKLEIKR
notes: Fab made by ficin cleavage of the whole antibody; also called mFab from mAB1

Legend:
[1] = target: T1, Tau seeds: sonicated human insoluble Tau from patients with progressive supranuclear palsy (PSP-PHF, fraction … (human, UniProt P10636-8 2-441, limits assumed)); test: cell-based or functional assay
T1 sequence (P10636 other isoform, or with tags, fused parts or gaps limits assumed): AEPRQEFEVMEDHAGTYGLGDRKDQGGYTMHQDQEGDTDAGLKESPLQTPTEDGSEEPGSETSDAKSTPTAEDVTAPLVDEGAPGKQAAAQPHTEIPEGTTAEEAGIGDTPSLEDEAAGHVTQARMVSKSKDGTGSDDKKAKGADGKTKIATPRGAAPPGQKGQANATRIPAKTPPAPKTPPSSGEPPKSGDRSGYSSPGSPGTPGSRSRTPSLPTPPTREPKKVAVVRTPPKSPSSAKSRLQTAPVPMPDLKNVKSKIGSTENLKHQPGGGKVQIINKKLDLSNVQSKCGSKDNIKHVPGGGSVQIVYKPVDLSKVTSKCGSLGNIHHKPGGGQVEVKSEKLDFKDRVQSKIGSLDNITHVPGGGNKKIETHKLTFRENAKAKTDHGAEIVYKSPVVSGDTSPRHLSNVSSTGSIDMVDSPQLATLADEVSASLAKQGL

[2] = target: T2, Tau seeds: sonicated human insoluble Tau from patients with Alzheimer's disease (AD-PHF, fraction 8) (human, UniProt P10636-8 2-441, limits assumed); test: cell-based or functional assay
T2 sequence (P10636 other isoform, or with tags, fused parts or gaps limits assumed): as above

[3] = target: Tau seeds: sonicated human insoluble Tau from patients with frontotemporal dementia (FTD-PHF) (human, UniProt P10636-8 2-441, limits assumed); test: cell-based or functional assay
Sequence of Tau seeds: sonicated human insoluble Tau from patients with frontotemporal dementia (FTD-PHF) (P10636 other isoform, or with tags, fused parts or gaps limits assumed): as above

[4] = target: T3, Tau seeds: brain fraction from transgenic mice expressing human Tau P301L (human, UniProt P10636-8 1-441, limits assumed); test: cell-based or functional assay
T3 sequence (P10636 other isoform, or with tags, fused parts or gaps P301L P301L limits assumed): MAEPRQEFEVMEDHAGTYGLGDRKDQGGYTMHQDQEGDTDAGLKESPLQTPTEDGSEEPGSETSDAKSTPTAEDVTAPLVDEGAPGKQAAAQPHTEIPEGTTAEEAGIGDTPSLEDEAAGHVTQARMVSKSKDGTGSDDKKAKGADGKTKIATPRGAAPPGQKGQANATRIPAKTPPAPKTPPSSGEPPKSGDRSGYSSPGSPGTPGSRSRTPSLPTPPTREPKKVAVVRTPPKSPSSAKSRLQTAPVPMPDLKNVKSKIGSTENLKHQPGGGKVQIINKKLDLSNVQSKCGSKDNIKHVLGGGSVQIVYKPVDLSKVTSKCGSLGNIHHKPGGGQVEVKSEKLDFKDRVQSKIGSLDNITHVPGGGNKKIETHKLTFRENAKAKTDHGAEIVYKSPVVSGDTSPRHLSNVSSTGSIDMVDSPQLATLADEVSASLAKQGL

[5] = target: T2, Tau seeds: sonicated human insoluble …; test: cell-based or functional assay; remark: listed apart in the source
[6] = target: T1, Tau seeds: sonicated human insoluble …; test: cell-based or functional assay; remark: listed apart in the source
[7] = target: T3, Tau seeds: brain fraction from …; test: cell-based or functional assay; remark: listed apart in the source
[8] = target: T4, HEK-derived Tau isoform-2 monomers (amino acids 1-441) (human, UniProt P10636 1-758); test: SPR (Biacore T200), Tau amine-immobilised on CM5, mFab as analyte
T4 construct: Expressed in Expi293F cells, N-terminal 10His-TEV tag removed with TEV protease; phosphorylation state not described; also called HEK iso-2; HEK Tau
T4 sequence (P10636 other isoform, or with tags, fused parts or gaps): as the sequence (P10636 other isoform, or with tags, fused parts or gaps P301L P301L limits assumed) above, with L301P counted along it
Method: Selected monoclonal Fab fragments (mFab) were prepared from murinised mAB 1 antibody with light chain of SEQ ID No.: 58 and heavy chain of SEQ ID No.: 59 using the Pierce Ficin cleavage kit (Cat. No. 44980, Thermo Scientific) according to the protocol of the manufacturer. Absorption at 280 nm was used to determine the concentration of the Fab stock solutions for the Biacore analysis. An insoluble Tau protein preparation from Alzheimer's disease patients (AD-PHF, fraction 11), the HEK-derived Tau isoform-2 monomers (amino acids 1-441), and the isoform-2 monomers expressed in E. coli were amine immobilized onto the CM5 chip, and binding of anti-Tau mFabs was measured with the Biacore T200 instrument. The buffer HBS-EP from GE Healthcare was used for immobilizations apart from the AD-PHF for which 10 mM acetic acid (pH3.0) was used. The HBS-EP+ buffer was supplemented with 300 mM NaCl and 1.25% CM-Dextran (Sigma) and used as the assay buffer. While flow cell (Fc) 1 was used as a reference, the following RU values were obtained for Fc2-4: 44 RU with 5 ug/ml E. coli Tau, 56 RU with 5 ug/m HEK Tau, and 500 RU with a 1:20 diluted solution of the AD-PHF material. Two 60 s cycles of 10 mM Glycine (pH1.7) were used for regeneration. Flow rates of 10 ul/min were used for immobilization and regeneration while a 30 ul/min flow rate was used for analyte binding. […]

[9] = target: T5, insoluble Tau protein preparation from Alzheimer's disease patients (AD-PHF), immobilised for Biacore (human, UniProt P10636-8 2-441, limits assumed); test: SPR (Biacore T200), AD-PHF (fraction 11) amine-immobilised on CM5, mFab as analyte
T5 construct: also called AD-PHF, fraction 11; Tau PHF fibrils from Alzheimer's disease patients
T5 sequence (P10636 other isoform, or with tags, fused parts or gaps limits assumed): as the sequence (P10636 other isoform, or with tags, fused parts or gaps limits assumed) above
Method: Selected monoclonal Fab fragments (mFab) were prepared from murinised mAB 1 antibody with light chain of SEQ ID No.: 58 and heavy chain of SEQ ID No.: 59 using the Pierce Ficin cleavage kit (Cat. No. 44980, Thermo Scientific) according to the protocol of the manufacturer. Absorption at 280 nm was used to determine the concentration of the Fab stock solutions for the Biacore analysis. An insoluble Tau protein preparation from Alzheimer's disease patients (AD-PHF, fraction 11), the HEK-derived Tau isoform-2 monomers (amino acids 1-441), and the isoform-2 monomers expressed in E. coli were amine immobilized onto the CM5 chip, and binding of anti-Tau mFabs was measured with the Biacore T200 instrument. The buffer HBS-EP from GE Healthcare was used for immobilizations apart from the AD-PHF for which 10 mM acetic acid (pH3.0) was used. The HBS-EP+ buffer was supplemented with 300 mM NaCl and 1.25% CM-Dextran (Sigma) and used as the assay buffer. While flow cell (Fc) 1 was used as a reference, the following RU values were obtained for Fc2-4: 44 RU with 5 ug/ml E. coli Tau, 56 RU with 5 ug/m HEK Tau, and 500 RU with a 1:20 diluted solution of the AD-PHF material. Two 60 s cycles of 10 mM Glycine (pH1.7) were used for regeneration. Flow rates of 10 ul/min were used for immobilization and regeneration while a 30 ul/min flow rate was used for analyte binding. For AD-PHF, multiple manual injections were applied to reach 500 RU, including EDC/NHS and EtoA capping. Five start-up cycles and 12 cycles per mFab sample or buffer control were applied, using 90 uls analyte injections for either 180 s or 300 s for dissociation. 11 1:3 dilutions of a 600 nM solution plus buffer were used for each mFab.

[10] = target: B3; test: SPR competition: no significant inhibition of L17H20 binding to immobilised HEK Tau isoform-2
Text: Recombinant Tau isoform-2 monomer (amino acids 1-441), expressed and purified from HEK cells, and insoluble Tau protein in the form of a paired helical filament preparation isolated from Alzheimer's disease patient brain (AD-PHF), were amine immobilized onto the CM5 chip using a Biacore 3000 instrument and HBS-EP (GE Healthcare) as running buffer. The former were amine coupled to flow cells 2 and 4 respectively following activation of the carboxymethyl dextran surface these and reference flow cells by injection of 70 μl of a fresh mixture of 50 mM N-hydroxysuccimide and 200 mM 1-ethyl-3-(3-dimethylaminopropyl)-carbodiimide at a flow rate of 10 μl/min. Immobilization of tau monomer was achieved by injecting 160 μl at 50 μg/ml in 10 mM acetate pH 5.0 buffer, whereas AD-PHF was immobilized by injecting twenty 160 μl aliquots at 2 μg/ml in 10 mM acetic acid (pH3.0). […]
Epitope mapping was carried out by pre-incubating solutions of a Tau-binding humanised antibody having the light chain of SEQ ID NO: 17 and the heavy chain of SEQ ID NO: 20 (L17H20) and test peptide or buffer controls, prepared in running buffer at 200 nM and 5000 nM respectively. […] Response units of antibody binding were recorded at report points taken 15 sec after the end of each injection as the difference between values of test and reference flow cells. […]

B1
Imax (maximal efficacy at 300 nM), cellular Tau aggregation assay [1]: 49%

B2
Imax (maximal efficacy at 300 nM), cellular Tau aggregation assay [1]: 47%

B3
IC50, cellular Tau aggregation assay [2]: 2 nM
Imax (maximal efficacy at 300 nM), cellular Tau aggregation assay [2]: 85%
IC50, cellular Tau aggregation assay [1]: 42 nM
Imax (maximal efficacy at 300 nM), cellular Tau aggregation assay [1]: 65%
IC50, cellular Tau aggregation assay [3]: 1 nM
Imax (maximal efficacy at 300 nM), cellular Tau aggregation assay [3]: 79%

B4
IC50, cellular Tau aggregation assay [1]: 66 nM
Imax (maximal efficacy at 300 nM), cellular Tau aggregation assay [1]: 47%

B5
IC50, cellular Tau aggregation assay (n=2) [4]: 15 nM
IC50, cellular Tau aggregation assay (n=3) [5]: 27 nM
IC50, cellular Tau aggregation assay (n=3) [6]: 70 nM
IC50, cellular Tau aggregation assay [7]: 9 nM
Imax (maximal efficacy at 300 nM), cellular Tau aggregation assay [7]: 81%
IC50, cellular Tau aggregation assay [2]: 10 nM
Imax (maximal efficacy at 300 nM), cellular Tau aggregation assay [2]: 79%
Imax (maximal efficacy at 300 nM), cellular Tau aggregation assay [1]: 54%
IC50, cellular Tau aggregation assay [3]: 1 nM
Imax (maximal efficacy at 300 nM), cellular Tau aggregation assay [3]: 81%

B6
binding result [8]: no binding (tested: 600 nM)
Kd [9]: 590 nM
koff [9]: 0.047 s⁻¹
kon [9]: 79600 M⁻¹ s⁻¹

[Tyr(3-NO2)][pS][pS]PG [T197H test peptide (nY pS pS P G)]
binding result [10]: no binding (tested: 5000 nM peptide)
